Data reported in article PMC3401278 (ACS Chemical Biology, 2012).
Like-named read-outs stand apart in the source and are kept apart here. Where no end group is shown, it is not given here. The star is where a group is joined. FITC = O=C1OC2(c3ccc(O)cc3Oc3cc(O)ccc32)c2ccc(NC(=S)*)cc21; βAla = NCCC(=O)O

Key:
[1] = molecular target: E. coli LpxA (Escherichia coli, UniProt P0A722); experiment: Fluorescence polarization competition binding assay, LpxA
[2] = molecular target: LpxA (Escherichia coli, UniProt P0A722); experiment: Continuous fluorescent acyltransferase inhibition assay; assay type: biochemical, E. coli; conditions: pH 7.5
[3] = molecular target: T1, E. coli His6-LpxD (Escherichia coli, UniProt P21645); experiment: biochemical; assay type: binding
[4] = molecular target: T1, E. coli His6-LpxD; experiment: Fluorescence polarization direct binding of FITC-labeled peptide to His6-LpxD; conditions: at up to 180 μM LpxD
[5] = molecular target: T2, E. coli His6-LpxD (UDP-3-O-(R-3-hydroxyacyl)glucosamine N-acyltransferase) (E. coli, UniProt P21645 1-341); experiment: fluorescence polarisation
T2 sequence (looked up): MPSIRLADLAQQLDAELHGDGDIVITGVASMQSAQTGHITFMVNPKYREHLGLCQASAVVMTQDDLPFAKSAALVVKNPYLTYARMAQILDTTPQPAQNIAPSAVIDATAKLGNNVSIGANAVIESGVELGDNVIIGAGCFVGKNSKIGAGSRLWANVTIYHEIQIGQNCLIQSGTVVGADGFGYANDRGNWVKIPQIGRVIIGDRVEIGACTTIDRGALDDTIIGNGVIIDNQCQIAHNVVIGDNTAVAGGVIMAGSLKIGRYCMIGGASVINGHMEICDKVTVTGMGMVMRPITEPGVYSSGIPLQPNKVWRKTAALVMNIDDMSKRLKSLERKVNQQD

[6] = molecular target: T2, E. coli His6-LpxD …; experiment: fluorescence polarisation; remark: listed apart in the source
[7] = molecular target: T3, E. coli LpxA (UDP-N-acetylglucosamine acyltransferase), native (E. coli, UniProt P0A722 1-262); experiment: fluorescence polarisation
T3 sequence (looked up): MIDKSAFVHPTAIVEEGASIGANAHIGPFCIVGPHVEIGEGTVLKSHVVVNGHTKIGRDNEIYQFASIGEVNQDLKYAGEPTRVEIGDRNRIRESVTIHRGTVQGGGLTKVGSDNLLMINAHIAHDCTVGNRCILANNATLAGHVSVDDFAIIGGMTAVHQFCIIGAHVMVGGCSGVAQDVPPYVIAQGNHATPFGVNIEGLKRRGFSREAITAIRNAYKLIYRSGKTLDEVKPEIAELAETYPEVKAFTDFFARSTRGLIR

SENNFMLPLLPL-NH2 [RJPXD34]
Kd [1]: > 300 µM | LpxA IC50 [2]: did not inhibit

CC[C@H](C)[C@H](NC(=O)[C@@H]1CCCN1C(=O)[C@H](CC(=O)O)NC(=O)[C@H](CC(C)C)NC(=O)[C@H](CCSC)NC(=O)[C@H](Cc1c[nH]c2ccccc12)NC(=O)CNC(=O)[C@H](CO)NC(=O)[C@@H](N)CO)C(=O)N[C@@H](C)C(=O)NCC(=O)N[C@@H](CCCCN)C(=O)N[C@@H](Cc1c[nH]c2ccccc12)C(=O)N[C@@H](CO)C(=O)N[C@@H](CCCNC(=N)N)C(N)=O [P920]
Kd [3]: > 300 µM

β-alanyl-fluorescein
ΔmP with LpxD, fluorophore alone [4]: ~ 26 mP

B1: FITC-RJPXD33 (FITC-(βA)TNLYMLPKWDIP-NH2) (peptide)
peptide: {FITC-βAla}-TNLYMLPKWDIP-NH2
SMILES: CC[C@H](C)[C@H](NC(=O)[C@H](CC(=O)O)NC(=O)[C@H](Cc1c[nH]c2ccccc12)NC(=O)[C@H](CCCCN)NC(=O)[C@@H]1CCCN1C(=O)[C@H](CC(C)C)NC(=O)[C@H](CCSC)NC(=O)[C@H](Cc1ccc(O)cc1)NC(=O)[C@H](CC(C)C)NC(=O)[C@H](CC(N)=O)NC(=O)[C@@H](NC(=O)CCNC(=S)Nc1ccc2c(c1)C(=O)OC21c2ccc(O)cc2Oc2cc(O)ccc21)[C@@H](C)O)C(=O)N1CCC[C@H]1C(N)=O
Kd [5]: 0.6 ± 0.04 µM

SENNFMLPLLPL-NH2 [RJPXD34 (SENNFMLPLLPL-NH2)]
Kd [6]: 31 ± 1.5 µM

QHFMVPDINDMQ-NH2 [RJPXD31 (QHFMVPDINDMQ-NH2)]
Kd [6]: 41 ± 3 µM | Kd [7]: 119 ± 9 µM

TNLYMLPKWDIP-NH2 [RJPXD33 (TNLYMLPKWDIP-NH2)]
Kd [6]: 6.5 ± 0.2 µM | Kd [7]: 22 ± 2.1 µM
